In patent publication US20250043302A1, “MUTATED HYDROXYPHENYLPYRUVATE DIOXYGENASE POLYPEPTIDE, AND CODING GENE AND USE THEREOF” (BEIJING DABEINONG BIOTECHNOLOGY CO., LTD., priority 2021, published 2025):

Assays:
Type in all cases: in vivo
[1] = tested on: Arabidopsis thaliana T1 plants; test: Mesotrione tolerance of transgenic Arabidopsis thaliana T1 plants (spray, bleached leaf area grade, damage score); set-up: Scores: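 damage score 0-100 computed as Σ(N×S)/(T×M)×100 over grades 0-3 with higher meaning more damage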; conditions: Table 12; for Classification and statistics of the grade of pesticide damage Grade 0: number of plants at grade 0; for Classification and statistics of the grade of pesticide damage Grade 1: number of plants at grade 1; for Classification and statistics of the grade of pesticide damage Grade 2: number of plants at grade 2; for Classification and statistics of the grade of pesticide damage Grade 3: number of plants at grade 3; for Scores: pesticide damage score
In short: (§1)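 Damage graded 0–3 from the proportion of bleached leaf area 7 days after spraying. Plants were glufosinate-selected T1 lines, 18 days after sowing, plus vector and wild-type controls. Rates: mesotrione 52.5–420, isoxaflutole 35–280, topramezone 25–200 g ai/ha, with water (0×).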

[2] = tested on: Arabidopsis thaliana T1 plants; test: Isoxaflutole tolerance of transgenic Arabidopsis thaliana T1 plants (spray, bleached leaf area grade, damage score); conditions: Table 11; for Classification and statistics of the grade of pesticide damage Grade 0: number of plants at grade 0; for Classification and statistics of the grade of pesticide damage Grade 1: number of plants at grade 1; for Classification and statistics of the grade of pesticide damage Grade 2: number of plants at grade 2; for Classification and statistics of the grade of pesticide damage Grade 3: number of plants at grade 3; for Scores: pesticide damage score;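 for Scores: Weighted damage index from 0 to 100 where higher means more damage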
In short: as §1

[3] = tested on: Arabidopsis thaliana T1 plants; test: Topramezone tolerance of transgenic Arabidopsis thaliana T1 plants (spray, bleached leaf area grade, damage score); conditions: Table 10; for Classification and statistics of the grade of pesticide damage Grade 0: number of plants at grade 0; for Classification and statistics of the grade of pesticide damage Grade 1: number of plants at grade 1; for Classification and statistics of the grade of pesticide damage Grade 2: number of plants at grade 2; for Classification and statistics of the grade of pesticide damage Grade 3: number of plants at grade 3; for Scores: pesticide damage score
In short: as §1

B1: HPPDm-4-02: nucleotide sequence encoding Avena sativa HPPD with A107 deletion+K351N+F372A+F383W; vector DBN11785 (nucleic acid)
DNA: ATGCCACCTACTCCAGCTACAGCTACTGGTGCTGCTGCTGCTGCCGTTACTCCTGAGCACGCTGCCAGGTCATTCCCCAGGGTGGTTCGCGTGAACCCCAGATCTGATAGGTTCCCAGTTCTGAGCTTCCACCATGTTGAGCTGTGGTGCGCTGATGCTGCTTCTGCTGCTGGCAGGTTCTCTTTCGCTCTTGGTGCTCCACTCGCTGCTAGATCTGATCTGTCTACAGGAAATAGCGCTCATGCCTCACTCCTGCTTCGCTCAGGTGCTTTGGCCTTCCTCTTCACCGCTCCATATGCTCCCCCACCTCAGGAGGCTACTGCTGCTGCTACAGCCTCCATTCCAAGCTTCTCAGCTGATGCCGCTAGAACCTTCGCTGCTGCTCATGGACTTGCCGTGAGGTCTGTTGGTGTTCGCGTGGCTGATGCTGCTGAGGCTTTCAGAGTTTCCGTTGCCGGCGGAGCTAGGCCAGCTTTCGCTCCTGCTGATTTGGGACATGGTTTCGGCCTGGCTGAGGTTGAGCTTTACGGTGACGTGGTTCTCCGCTTCGTGTCTTACCCAGATGAGACTGACCTGCCTTTCCTTCCCGGCTTCGAGAGAGTTTCCTCTCCTGGTGCCGTGGATTACGGCCTGACAAGGTTCGACCACGTGGTTGGAAACGTTCCCGAGATGGCTCCAGTGATCGATTACATGAAGGGCTTCCTTGGATTCCATGAGTTCGCCGAGTTCACTGCTGAGGACGTGGGAACCACTGAGTCCGGTTTGAACTCTGTGGTTCTCGCCAACAATTCTGAGGCTGTTTTGCTCCCTCTGAATGAGCCTGTGCATGGAACCAAGAGGAGAAGCCAGATTCAAACTTACCTGGAGTACCACGGTGGCCCTGGAGTTCAGCATATCGCCCTTGCTTCTAATGATGTGTTGCGCACACTCAGAGAGATGCGCGCCAGAACCCCCATGGGAGGTTTCGAGTTCATGGCCCCACCACAGGCTAAGTACTACGAGGGCGTTAGAAGGATTGCTGGAGACGTGTTGAGCGAGGAGCAGATCAATGAGTGCCAAGAGCTGGGTGTTCTTGTGGATAGGGATGACCAGGGCGTTCTGCTTCAAATTGCCACTAAGCCAGTGGGCGACCGCCCTACATTCTGGCTTGAGATGATTCAAAGAATCGGCTGCATGGAGAAGGATGAGGTTGGACAGGAGTACCAAAAGGGCGGATGCGGTGGCTTCGGAAAGGGTAACTTCAGCGAGTTGTTCAAGTCAATCGAGGACTACGAGAAGAGCCTCGAGGTGAAGCAGTCAGTGGTTGCCCAAAAGTCCTGA
modifications: HPPDm-4-02 Nucleotide Sequence
notes: vector DBN11785
- Resistance evaluation ([1]; mesotrione 210 g ai/ha (2×)): Highly resistant
- Classification and statistics of the grade of pesticide damage Grade 0 ([1]; mesotrione 210 g ai/ha (2×)): 16
- Classification and statistics of the grade of pesticide damage Grade 1 ([1]; mesotrione 210 g ai/ha (2×)): 0
- Classification and statistics of the grade of pesticide damage Grade 2 ([1]; mesotrione 210 g ai/ha (2×)): 0
- Classification and statistics of the grade of pesticide damage Grade 3 ([1]; mesotrione 210 g ai/ha (2×)): 0
- Scores ([1]; mesotrione 210 g ai/ha (2×)): 0
- Resistance evaluation ([1]; mesotrione 420 g ai/ha (4×)): Highly resistant
- Classification and statistics of the grade of pesticide damage Grade 0 ([1]; mesotrione 420 g ai/ha (4×)): 15
- Classification and statistics of the grade of pesticide damage Grade 1 ([1]; mesotrione 420 g ai/ha (4×)): 1
- Classification and statistics of the grade of pesticide damage Grade 2 ([1]; mesotrione 420 g ai/ha (4×)): 0
- Classification and statistics of the grade of pesticide damage Grade 3 ([1]; mesotrione 420 g ai/ha (4×)): 0
- Scores ([1]; mesotrione 420 g ai/ha (4×)): 2
- Resistance evaluation ([2]; isoxaflutole 140 g ai/ha (2×)): Highly resistant
- Classification and statistics of the grade of pesticide damage Grade 0 ([2]; isoxaflutole 140 g ai/ha (2×)): 16
- Classification and statistics of the grade of pesticide damage Grade 1 ([2]; isoxaflutole 140 g ai/ha (2×)): 0
- Classification and statistics of the grade of pesticide damage Grade 2 ([2]; isoxaflutole 140 g ai/ha (2×)): 0
- Classification and statistics of the grade of pesticide damage Grade 3 ([2]; isoxaflutole 140 g ai/ha (2×)): 0
- Scores ([2]; isoxaflutole 140 g ai/ha (2×)): 0
- Resistance evaluation ([2]; isoxaflutole 280 g ai/ha (4×)): Highly resistant
- Classification and statistics of the grade of pesticide damage Grade 0 ([2]; isoxaflutole 280 g ai/ha (4×)): 13
- Classification and statistics of the grade of pesticide damage Grade 1 ([2]; isoxaflutole 280 g ai/ha (4×)): 3
- Classification and statistics of the grade of pesticide damage Grade 2 ([2]; isoxaflutole 280 g ai/ha (4×)): 0
- Classification and statistics of the grade of pesticide damage Grade 3 ([2]; isoxaflutole 280 g ai/ha (4×)): 0
- Scores ([2]; isoxaflutole 280 g ai/ha (4×)): 6
- Resistance evaluation ([3]; topramezone 100 g ai/ha (4×)): Highly resistant
- Classification and statistics of the grade of pesticide damage Grade 0 ([3]; topramezone 100 g ai/ha (4×)): 16
- Classification and statistics of the grade of pesticide damage Grade 1 ([3]; topramezone 100 g ai/ha (4×)): 0
- Classification and statistics of the grade of pesticide damage Grade 2 ([3]; topramezone 100 g ai/ha (4×)): 0
- Classification and statistics of the grade of pesticide damage Grade 3 ([3]; topramezone 100 g ai/ha (4×)): 0
- Scores ([3]; topramezone 100 g ai/ha (4×)): 0
- Resistance evaluation ([3]; topramezone 200 g ai/ha (8×)): Highly resistant
- Classification and statistics of the grade of pesticide damage Grade 0 ([3]; topramezone 200 g ai/ha (8×)): 16
- Classification and statistics of the grade of pesticide damage Grade 1 ([3]; topramezone 200 g ai/ha (8×)): 0
- Classification and statistics of the grade of pesticide damage Grade 2 ([3]; topramezone 200 g ai/ha (8×)): 0
- Classification and statistics of the grade of pesticide damage Grade 3 ([3]; topramezone 200 g ai/ha (8×)): 0
- Scores ([3]; topramezone 200 g ai/ha (8×)): 0
